Article PMC4794675 (Journal of Virology, 2016)

B1: MAb C2 (mouse monoclonal antibody against C-epitope I) (antibody, V domains shown)
VH: EVQLQQPGAELVRPGGSVKLSCKASGYSFTTYWMNWVKQRPGQGLEWIGMIQPSDSETRLNQKFKDKATLTLDRSSSTVYMQLSSPTSDDSAVYYCARTGRGDAWLTYWGQGTSVTVSS
VL: NIVLTQSPVSLAVSLGQRATISCRASKSVSTSGYSYMHWYQQKPGQPPRLLLYLGSNLESGVPARFSGSGSGTDFTLNIHPVEEEDAATYYCQHIRELTRSFGGGTKLEIK
notes: source: also used as hybridoma supernatant
B2: Fab fragment of the C2 antibody (Fab, V domains shown)
VH: B1 VH
VL: B1 VL
notes: source: papain digestion of purified IgG; Fc removed on protein G, gel filtration
B3: MAb AP33 (broadly neutralizing mouse monoclonal antibody) (antibody, V domains shown)
VH: EVQLQESGPSLVKPSQTLSLTCSVTGDSITSGYWNWIRKFPGNKLEYMGYISYSGSTYYNLSLRSRISITRDTSKNQYYLQLNSVTTEDTATYYCALITTTTYAMDYWGQGTSVTVSS
VL: NIVLTQSPVSLAVSLGQRATISCRASESVDGYGNSFLHWFQQKPGQPPKLLIYLASNLNSGVPARFSGSGSRTDFTLTIDPVEADDAATYYCQQNNVDPWTFGGGTKLEIK
B4: Fab fragment of AP33 (Fab, V domains shown)
VH: B3 VH
VL: B3 VL
notes: as for B2

Tests used:
[1] = biological target: T1, Soluble E2 (sE2), amino acids 384 to 661 of HCV genotype 1a strain H77 (Hepatitis C virus genotype 1a, H77, UniProt P27958); assay: SPR; Biacore 3000, sE2 immobilised on CM5 by amine coupling; MAbs or Fabs injected; HBS pH 7.2, 25°C, 20 μl/min; 1:1 Langmuir fit; conditions: both partners purified
T1 construct: source: High Five insect cells, recombinant baculovirus, secreted, purified (Ni-nitrilotriacetic acid chromatography)

[2] = biological target: T2, BSA2 (glutaraldehyde-self-conjugated BSA) (Bos taurus, UniProt P02769); assay: ELISA; conditions: both partners purified
T2 construct: bovine serum albumin; also called BSA2 control; source: BSA self-conjugated with 0.2% glutaraldehyde, dialysed

[3] = biological target: T3, sE2 expressed in mammalian cells (HEK293T lysate) (Hepatitis C virus; strain of this …); assay: ELISA; conditions: one partner purified
T3 construct: also called mammalian cell-expressed sE2; source: HEK293T, transfected, in clarified lysate

[4] = biological target: T4, E1E2 heterodimer (E1E2 glycoprotein) (Hepatitis C virus; strain of this …); assay: ELISA; conditions: one partner purified
T4 construct: source: HEK293T, transfected, in clarified lysate

[5] = biological target: T5, full-length (FL) E2 protein (Hepatitis C virus; strain of this …); assay: ELISA; conditions: one partner purified
T5 construct: source: HEK293T, transfected, in clarified lysate
T5 sequence (P27958 384-746): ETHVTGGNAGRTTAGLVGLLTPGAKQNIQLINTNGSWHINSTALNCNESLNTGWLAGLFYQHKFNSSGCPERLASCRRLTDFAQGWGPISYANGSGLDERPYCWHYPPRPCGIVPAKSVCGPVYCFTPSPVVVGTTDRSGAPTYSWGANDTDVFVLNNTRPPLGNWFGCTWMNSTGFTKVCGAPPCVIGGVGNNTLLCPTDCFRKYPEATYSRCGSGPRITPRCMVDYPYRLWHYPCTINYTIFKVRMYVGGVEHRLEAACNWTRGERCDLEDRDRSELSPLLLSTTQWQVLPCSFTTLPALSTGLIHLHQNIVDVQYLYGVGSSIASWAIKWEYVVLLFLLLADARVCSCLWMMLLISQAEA

T1 sequence (P27958 384-661): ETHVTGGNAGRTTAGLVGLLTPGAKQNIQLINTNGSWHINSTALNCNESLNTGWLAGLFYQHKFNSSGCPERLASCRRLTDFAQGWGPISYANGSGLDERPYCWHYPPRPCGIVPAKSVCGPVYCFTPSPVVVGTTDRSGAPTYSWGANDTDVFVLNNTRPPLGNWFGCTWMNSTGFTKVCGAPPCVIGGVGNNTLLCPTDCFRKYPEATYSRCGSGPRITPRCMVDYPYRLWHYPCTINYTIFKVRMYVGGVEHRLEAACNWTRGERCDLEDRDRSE
T2 sequence (P02769 25-607): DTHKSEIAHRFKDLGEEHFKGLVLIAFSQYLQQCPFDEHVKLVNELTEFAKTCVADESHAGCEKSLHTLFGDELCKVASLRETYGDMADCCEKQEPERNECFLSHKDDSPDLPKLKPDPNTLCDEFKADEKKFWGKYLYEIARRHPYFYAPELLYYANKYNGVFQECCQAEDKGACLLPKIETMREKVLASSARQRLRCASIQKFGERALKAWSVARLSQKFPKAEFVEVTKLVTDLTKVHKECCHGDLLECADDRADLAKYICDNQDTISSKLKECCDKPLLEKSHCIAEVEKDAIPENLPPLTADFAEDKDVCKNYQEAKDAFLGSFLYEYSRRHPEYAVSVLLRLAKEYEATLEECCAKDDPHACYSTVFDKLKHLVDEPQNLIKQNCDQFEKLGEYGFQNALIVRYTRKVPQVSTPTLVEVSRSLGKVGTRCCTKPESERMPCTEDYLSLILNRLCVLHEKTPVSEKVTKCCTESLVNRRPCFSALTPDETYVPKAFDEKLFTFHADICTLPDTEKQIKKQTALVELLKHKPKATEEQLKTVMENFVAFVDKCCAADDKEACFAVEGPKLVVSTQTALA

| Binder | Kd [1] [nM] | koff [1] [s⁻¹] | kon [1] [M⁻¹ s⁻¹] | binding result [2] | binding result [3] | binding result [4] | binding result [5] |
| --- | --- | --- | --- | --- | --- | --- | --- |
| B1 | 49.8 | 0.000848 | 18800 | no binding |  |  |  |
| B2 | 301 | 0.00463 | 12800 |  |  |  |  |
| B3 | 0.142 | 6.4e-05 | 649000 |  | binds | binds | binds |
| B4 | 0.72 | 0.000147 | 230000 |  |  |  |  |
